Results reported in the supplement of paper PMC9112550, “Optimization of the antimicrobial peptide Bac7 by deep mutational scanning” (BMC Biology, 2022).

Tested on: Escherichia coli TOP10
Assay: shrunken log2 fold change of peptide-encoding DNA abundance (4.5 h post-induction vs induction); higher = less antimicrobial activity (less host growth inhibition)
Conditions: time post-induction: 4.5 h; library: site-saturation at positions 5, 18, 19, 20
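Note: peptides expressed intracellularly from a pBAD plasmid library in pooled LB shake-flask culture, induced with 0.3% L-arabinose, DNA abundance read by NGS, three biological replicates, DESeq2 with apeglm shrinkage.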

Row | Sequence | shrunken log2 fold change
1 | RRIRHRPPRLPRPRPRPMQIPRP | 0.093
2 | RRIRRRPPRLPRPRPRPRRNPRP | 0.223
3 | RRIRVRPPRLPRPRPRPFSVPRP | -0.299
4 | RRIRDRPPRLPRPRPRPNLLPRP | -0.0507
5 | RRIRHRPPRLPRPRPRPSERPRP | -0.0252
6 | RRIRIRPPRLPRPRPRPKCGPRP | -0.0309
7 | RRIRFRPPRLPRPRPRPYQAPRP | -0.303
8 | RRIRERPPRLPRPRPRPQEAPRP | -0.018
9 | RRIRFRPPRLPRPRPRPANGPRP | 0.0551
10 | RRIRDRPPRLPRPRPRPDLNPRP | -0.041
11 | RRIRHRPPRLPRPRPRPSTKPRP | -0.383
12 | RRIRFRPPRLPRPRPRPRHCPRP | -0.239
13 | RRIRYRPPRLPRPRPRPQVFPRP | 0.0195
14 | RRIRVRPPRLPRPRPRPAQTPRP | 0.442
15 | RRIRKRPPRLPRPRPRPQKLPRP | 0.015
16 | RRIRSRPPRLPRPRPRPTMRPRP | 0.881
17 | RRIRYRPPRLPRPRPRPWGFPRP | -0.167
18 | RRIRQRPPRLPRPRPRPNAKPRP | -0.0176
19 | RRIRIRPPRLPRPRPRPIEEPRP | -0.0195
20 | RRIRYRPPRLPRPRPRPEFGPRP | 0.113
21 | RRIRARPPRLPRPRPRPFSLPRP | 0.0486
22 | RRIRVRPPRLPRPRPRPGEVPRP | 0.101
23 | RRIRIRPPRLPRPRPRPIFPPRP | -0.104
24 | RRIRCRPPRLPRPRPRPGKRPRP | 0.244
25 | RRIRSRPPRLPRPRPRPAKDPRP | 0.135

Row | Sequence | shrunken log2 fold change
26 | RRIRRRPPRLPRPRPRPDKVPRP | -0.053
27 | RRIRERPPRLPRPRPRPKGGPRP | -0.0194
28 | RRIRSRPPRLPRPRPRPKSCPRP | 0.61
29 | RRIRGRPPRLPRPRPRPWQTPRP | 0.174
30 | RRIRFRPPRLPRPRPRPNCVPRP | -0.321
31 | RRIRYRPPRLPRPRPRPIVPPRP | 0.0202
32 | RRIRGRPPRLPRPRPRPIFWPRP | 0.531
33 | RRIRYRPPRLPRPRPRPMCLPRP | -0.0113
34 | RRIRGRPPRLPRPRPRPIARPRP | 0.792
35 | RRIRKRPPRLPRPRPRPNRPPRP | 0.0563
36 | RRIRARPPRLPRPRPRPCNLPRP | -0.314
37 | RRIRHRPPRLPRPRPRPKEDPRP | 2.87
38 | RRIRARPPRLPRPRPRPGIVPRP | 0.174
39 | RRIRVRPPRLPRPRPRPFYRPRP | -0.576
40 | RRIRRRPPRLPRPRPRPSYLPRP | -0.36
41 | RRIRQRPPRLPRPRPRPEDAPRP | -0.132
42 | RRIRWRPPRLPRPRPRPSLAPRP | 0.428
43 | RRIRHRPPRLPRPRPRPVYYPRP | -1.02
44 | RRIRWRPPRLPRPRPRPCESPRP | -0.0177
45 | RRIRSRPPRLPRPRPRPMPCPRP | 0.216
46 | RRIRDRPPRLPRPRPRPGMCPRP | 0.432
47 | RRIRERPPRLPRPRPRPMMVPRP | 0.0544
48 | RRIRRRPPRLPRPRPRPRVDPRP | 0.00278
49 | RRIRSRPPRLPRPRPRPIDHPRP | -0.273
50 | RRIRARPPRLPRPRPRPCTTPRP | 0.184

Row | Sequence | shrunken log2 fold change
51 | RRIRWRPPRLPRPRPRPYAMPRP | 0.0576
52 | RRIRERPPRLPRPRPRPHDSPRP | -0.00973
53 | RRIRDRPPRLPRPRPRPLNIPRP | -0.161
54 | RRIRMRPPRLPRPRPRPYRAPRP | -0.691
55 | RRIRNRPPRLPRPRPRPWMMPRP | -0.594
56 | RRIRTRPPRLPRPRPRPRPWPRP | 0.0956
57 | RRIRGRPPRLPRPRPRPDWQPRP | 0.336
58 | RRIRQRPPRLPRPRPRPLYCPRP | -0.672
59 | RRIRTRPPRLPRPRPRPWSTPRP | -0.14
60 | RRIRCRPPRLPRPRPRPYYLPRP | -0.38
61 | RRIRLRPPRLPRPRPRPKERPRP | -0.00664
62 | RRIRMRPPRLPRPRPRPFQCPRP | -0.153
63 | RRIRLRPPRLPRPRPRPMMDPRP | -0.0843
64 | RRIRQRPPRLPRPRPRPFSCPRP | -0.00804
65 | RRIRARPPRLPRPRPRPPRCPRP | 0.931
66 | RRIRRRPPRLPRPRPRPWIIPRP | -0.021
67 | RRIRERPPRLPRPRPRPPWMPRP | -0.22
68 | RRIRVRPPRLPRPRPRPCIDPRP | -0.106
69 | RRIRIRPPRLPRPRPRPYQDPRP | -0.0361
70 | RRIRCRPPRLPRPRPRPPVKPRP | -0.00107
71 | RRIRSRPPRLPRPRPRPGITPRP | -0.151
72 | RRIRYRPPRLPRPRPRPNKWPRP | 0.0191
73 | RRIRCRPPRLPRPRPRPRCKPRP | -0.206
74 | RRIRFRPPRLPRPRPRPPCDPRP | 0.0212
75 | RRIRQRPPRLPRPRPRPDRNPRP | -0.176
